The text below walks through data of patent publication US10835594B2, “Type III secretion injectisome proteins for treatment and prevention of chlamydial infections” (priority 2014, dated 2020).

The assay relates to murine C. trachomatis (Cmu). Description: Immunization of mice and live intravaginal challenge with Cmu. As to conditions: mouse, in vivo. Further details: species or system BALB/c mice.

B1: Cpn0803 protein: Chlamydia pneumoniae type III secretion-associated protein, SEQ ID NO: 1 (protein, listed as Chlamydia pneumoniae)
chain: MAAKTKTLELEDNVFLLLEGNLKRIFATPIGYTTFREFQNVVFNCANGQQEIANFFFEMLINGKLTQELAPQQKQAAHSLIAEFMMPIRVAKDIHERGEFINFITSDMLTQQERCIFLNRLARVDGQEFLLMTDVQNTCHLIRHLLARLLEAQKNPVGEKNLQEIQEEITSLKNHFDELTKALQ
Consider B1, for which the “immune response protective against live challenge” value is on record as “protective against a live challenge with Chlamydia”. Moreover, the “immune response protective against live challenge” value (listed as Cpn0803) is on record as “Protective Against a Live Challenge with Chlamydia”.
